From US20150361183A1 (IMPERIAL INNOVATIONS, published 2015)

B1: CFHR5 dimer mutant (Tyr34Ser, Ser36Tyr, Tyr39Glu) (other)
chain: EGTLCDFPKIHHGFLYDEEDYNPFSQVPTGEVFSYYCEENFVSPSKSFWTRITCTEEGWSPTPKCLRMCSFPFVKNGHSESSGLIHLEGDTVQIICNTGYSLQNNEKNISCVERGWSTPPICSFTKGECHVPILEANVDAQPKKESYKVGDVLKFSCRKNLIRVGSDSVQCYQFGWSPNFPTCKGQVRSCGPPPQLSNGEVKEIRKEEYGHNEVVEYDCNPNFIINGPKKIQCVDGEWTTLPTCVEQVKTCGYIPELEYGYVQPSVPPYQHGVSVEVNCRNEYAMIGNNMITCINGIWTELPMCVATHQLKRCKIAGVNIKTLLKLSGKEFNHNSRIRYRCSDIFRYRHSVCINGKWNPEVDCTEKREQFCPPPPQIPNAQNMTTTVNYQDGEKVAVLCKENYLLPEAKEIVCKDGRWQSLPRCVESTAYCGPPPSINNGDTTSFPLSVYPPGSTVTYRCQSFYKLQGSVTVTCRNKQWSEPPRCLDPCVVSEENMNKNNIQLKWRNDGKLYAKTGDAVEFQCKFPHKAMISSPPFRAICQEGKFEYPICE
notes: also called monomeric CFHR5
B2: CFHR112 (recombinant first two SCR domains of CFHR1) (other)
chain: EATFCDFPKINHGILYDEEKYKPFSQVPTGEVFYYSCEYNFVSPSKSFWTRITCTEEGWSPTPKCLRLCFFPFVENGHSESSGQTHLEGDTVQIICNTGYRLQNNENNISCVERGWSTPPKCRST
notes: Head-to-tail homodimer in crystal and in solution; also called CFHR1,2; recombinant CFHR1 domains 1 and 2

Columns and labels:
[1] = biological target: the molecule itself; experiment: MALS / size exclusion chromatography
Source text: FIG. 3(a) Generation of a CFHR5 protein lacking critical amino acids within the dimerisation motif. Monomeric CFHR5 (CFHR5^{dimer mutant}) was generated by mutating the three stabilizing amino acids (Tyr34Ser, Ser36 Tyr, Tyr39Glu) within the dimerisation motif to the corresponding amino acids within CFH. FIG. 3(b) Analysis of recombinant CFHR5 and CFHR5^{dimer mutant} using SDS PAGE gel electrophoresis. Both the wild type and dimer mutants were purified to single homogenous species as visualized by denaturing electrophoresis. FIG. 3(c) Analysis of recombinant CFHR5 and CFHR5^{dimer mutant} using size exclusion chromatography. Size exclusion chromatography was performed on a Superdex200 10/30 column (GE Healthcare) equilibrated in 50 mM Tris.HCl, pH 7.5, 150 mM NaCl at 0.4 ml/min. The column was followed in-line by an Optilab-Rex refractive index monitor (Wyatt Technologies). The CFHR5 dimer elutes early from the column (blue trace) whilst the monomeric CFHR5^{dimer mutant} protein elutes at a larger column volume (red trace). FIG. 3(d) Interaction of CFHR5 and CFHR5^{dimer mutant} with renal-bound mouse C3 in vivo.
The inventors next explored the functional consequences of dimerisation. They predicted that dimerisation would enhance ligand interaction through avidity. To test this they generated monomeric and dimeric CFHR5 proteins. […]

[2] = biological target: the molecule itself; experiment: X-ray crystal structure
Experimental: Crystals were grown using the sitting drop vapour diffusion method from 0.2 μL, protein+0.2 μL mother liquor drops at […] using protein stocks at A280=3.3 and 7.8 for CFHR112 and CFHR234 respectively. CFHR112 crystals grew from a mother liquor containing 36% PEG 2000 MME, 0.1M MES pH 6.5. CFHR234 crystals grew in 30% PEG 8000, 0.2M ammonium sulphate. Crystals were plunge cooled in liquid nitrogen following cryoprotection in 20% and 15% ethylene glycol for CFHR112 and CFHR234, respectively. Data were collected at both the ESRF and DIAMOND using the rotation method with oscillation ranges of 0.150 or 0.20 at 120 K. CFHR112 data were collected at beamline ID29 (ESRF, Grenoble) with λ=1.7105 Å. CFHR234 data were collected at beamline I04-1 (DIAMOND, UK) with λ=0.9173 Å. Data were integrated and scaled using XIA2 19 with the −3dii option to enforce usage of XDS 20 for integration and SCALA for scaling 21.

[3] = biological target: T1, C5 (UniProt P01031 19-673; P01031 678-1676, limits assumed); experiment: SPR, CFHR112 immobilised (750 RU), C5 flowed
T1 construct: also called complement C5
T1 sequence (P01031 19-673 limits assumed, chain 1 of 2): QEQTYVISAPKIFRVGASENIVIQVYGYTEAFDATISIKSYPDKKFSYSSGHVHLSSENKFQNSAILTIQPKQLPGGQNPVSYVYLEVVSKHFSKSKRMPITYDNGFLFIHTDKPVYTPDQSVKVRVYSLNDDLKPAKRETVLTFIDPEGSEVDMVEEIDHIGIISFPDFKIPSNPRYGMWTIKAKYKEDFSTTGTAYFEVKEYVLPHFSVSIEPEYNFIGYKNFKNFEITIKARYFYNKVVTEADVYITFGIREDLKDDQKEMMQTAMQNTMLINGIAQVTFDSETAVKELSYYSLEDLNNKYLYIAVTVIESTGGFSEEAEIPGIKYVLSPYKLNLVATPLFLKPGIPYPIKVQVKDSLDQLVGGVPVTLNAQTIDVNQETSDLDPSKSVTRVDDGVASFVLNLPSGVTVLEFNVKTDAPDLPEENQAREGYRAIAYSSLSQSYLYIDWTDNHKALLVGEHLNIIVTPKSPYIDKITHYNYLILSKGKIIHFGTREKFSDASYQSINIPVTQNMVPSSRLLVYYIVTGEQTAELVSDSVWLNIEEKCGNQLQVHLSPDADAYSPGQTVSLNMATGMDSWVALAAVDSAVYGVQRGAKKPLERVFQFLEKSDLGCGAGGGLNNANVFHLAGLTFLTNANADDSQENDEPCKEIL
T1 sequence (P01031 678-1676 limits assumed, chain 2 of 2): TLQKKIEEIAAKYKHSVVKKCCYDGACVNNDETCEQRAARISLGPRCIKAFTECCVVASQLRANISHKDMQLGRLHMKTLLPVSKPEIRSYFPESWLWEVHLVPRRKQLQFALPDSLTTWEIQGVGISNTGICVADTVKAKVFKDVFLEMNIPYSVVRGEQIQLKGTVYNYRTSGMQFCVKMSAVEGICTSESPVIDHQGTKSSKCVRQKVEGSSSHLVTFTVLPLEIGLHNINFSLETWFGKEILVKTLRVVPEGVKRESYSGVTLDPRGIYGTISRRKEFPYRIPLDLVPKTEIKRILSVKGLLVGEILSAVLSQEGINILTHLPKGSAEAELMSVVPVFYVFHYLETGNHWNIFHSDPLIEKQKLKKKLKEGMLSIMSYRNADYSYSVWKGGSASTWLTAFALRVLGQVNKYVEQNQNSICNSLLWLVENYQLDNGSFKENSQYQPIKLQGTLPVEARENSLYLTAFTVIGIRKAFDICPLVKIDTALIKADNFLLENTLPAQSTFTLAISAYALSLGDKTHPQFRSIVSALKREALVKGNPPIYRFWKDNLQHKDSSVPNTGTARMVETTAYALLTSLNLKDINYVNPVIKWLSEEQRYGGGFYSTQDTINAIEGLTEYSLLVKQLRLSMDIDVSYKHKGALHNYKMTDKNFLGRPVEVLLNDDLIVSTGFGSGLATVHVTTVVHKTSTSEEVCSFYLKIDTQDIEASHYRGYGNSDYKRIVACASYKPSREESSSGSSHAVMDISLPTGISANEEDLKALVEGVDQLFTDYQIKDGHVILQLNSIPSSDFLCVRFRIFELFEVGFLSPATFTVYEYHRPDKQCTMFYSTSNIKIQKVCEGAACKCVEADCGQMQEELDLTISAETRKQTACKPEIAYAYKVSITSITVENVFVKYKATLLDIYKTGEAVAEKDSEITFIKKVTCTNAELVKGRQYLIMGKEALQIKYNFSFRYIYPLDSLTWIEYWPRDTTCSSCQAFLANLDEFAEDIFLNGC

Row | Binder | binding result [1] | binding result [2] | binding result [3]
1 | B1 | no binding | – | –
2 | B2 | – | binds | no binding
